# Data taken from patent publication US7303752B2, “Hookworm vaccine” (The George Washington University, priority 2001, dated 2007).
# Several values for one entry are separate records, joined by “and”; a condition that tells them apart may be missing. Equal values may be shown once.
# Assays:
# [1] = tested on: recombinant Ac-CP-2; assay: Proteolytic activity of recombinant Ac-CP-2 against Z-Phe-Arg-AMC; assay type: biochemical, Ancylostoma caninum
# Experimental: Purified, recombinant Ac-CP-2 was assessed for proteolytic activity using the fluorogenic peptidyl substrate Z-Phe-Arg-aminomethyl coumarin (AMC) (Bachem). The pH optimum of Ac-CP-2 was assessed using Z-Phe-Arg-AMC at different pH values according to published protocols. The cysteine protease inhibitor E64 was included in some assays at a final concentration of 5 μM. Recombinant Ac-CP-2 was treated with PNGase F and O-glycosidase, according to the manufacturer's instructions (Enzymatic CarboRelease kit, QA-Bio), under denaturing conditions to remove any N-linked and O-linked oligosaccharides.
# Canine IgG was purified from sera of vaccinated dogs using protein A-agarose (Amersham Biosciences) as previously described. Purified IgG (10-500 ng) was incubated with 1.0 μg of recombinant Ac-CP-2 for 45 mins prior to assessing proteolytic activity as described above.
# [2] = tested on: antibody to recombinant proteins; assay: Pre-challenge antibody titer ELISA, trial with Ac-ASP-2, Ac-API, Ac-MEP-1, Ac-APR-1 in AS03; assay type: in vivo, dog
# Experimental: (§1) The vaccine trial was designed to test Ac-API, Ac-ASP-2, Ac-MEP-1, Ac-APR-1 formulated with Adjuvant System 03 (AS03) obtained from GlaxoSmithKline (GSK). The rationale for selecting AS03 as an adjuvants is discussed elsewhere (Stoute et al, 1997). The ten purpose bred beagles were randomized into five arms: immunized with the adjuvant-formulated recombinant proteins or adjuvant only (control). To make six doses of antigen formulated with AS03, […] of recombinant protein (0.3 ml of antigen at a concentration of 2 mg.ml^−1) was mixed with 1.2 ml of 20 mM Tris-HCl, 0.5 M NaCl, pH 7.9 and 1.5 ml of AS03; the contents of the tube were vortex mixed for 30 seconds then shaken at low speed for 10 minutes. Dogs were immunized with 100 g of formulated antigen in a final volume of 0.5 ml. ASO3 only control was prepared as described above, with PBS included instead of antigen. Formulation of GSK adjuvants were conducted according to the protocol provided by GSK. All injections were performed intramuscularly (IM). Test and control articles were prepared on the day of injection. All animals received 4 immunizations approximately 3 weeks apart.
# Beagles were immunized with formulated Ac-ASP-2 as previously described (Loukas et al, 2004). The vaccines were administered IM three times beginning at age 62+/−4 days. Boosts were administered to the dogs at intervals of 21 days. Blood was drawn at least once every 21 days and serum was separated from cells by centrifugation. Each animal's specific antibody response was evaluated by indirect ELISA using serum taken prior to the infective challenge (Loukas et al, 2004). Recombinant Ac-ASP-2 was coated onto microtiter plates at a concentration of 5 g.ml^−1. Dog sera were titrated between 1:100 and 1:2×10^6 to determine endpoint titers. Anti-canine IgG1, IgG2 and IgE antibodies conjugated to horse-radish peroxidase (Bethyl Laboratories) were used at a dilution of 1:1,000.
# [3] = tested on: anti-ASP-2 antibodies; assay: ELISA of canine IgG1, IgG2, IgE after Ac-ASP-2/AS03 vaccination (Example 12); assay type: in vivo, dog
# Experimental: This study was conducted and reported in compliance with the intent of the Good Laboratory Practice Regulations (F.R. Vol. 43, No. 247, pp. 60013-60025, Dec. 22, 1978 and subsequent amendments). The study was audited by Quality Assurance while in progress to assure compliance with GLP regulations, adherence to the protocol and standard operating procedures. The data and final report were audited by Quality Assurance to assure that the report accurately described study conduct and results. The vaccine trial was designed to test Ac-ASP-2 formulated with Adjuvant System 03 (AS03) 44 obtained from GlaxoSmithKline. The rationale for selecting AS03 as an adjuvants is discussed elsewhere 37. The ten purpose bred beagles were randomized into two arms: immunized with Ac-ASP-2 (SEQ ID NO: 20) or adjuvant only (control). To make six doses of Ac-ASP-2 (SEQ ID NO: 20) formulated with AS03, 600 μg of recombinant protein (0.3 ml of Ac-ASP-2 (SEQ ID NO: 20) at a concentration of 2 mg.ml^−1) was mixed with 1.2 ml of 20 mM Tris-HCl, 0.5 M NaCl, pH 7.9 and 1.5 ml of AS03; the contents of the tube were vortex mixed for 30 seconds then shaken at low speed for 10 minutes. […]
# Beagles were immunized with formulated Ac-ASP-2 (SEQ ID NO: 20) as previously described^37. […] Each animal's specific antibody response was evaluated by indirect ELISA using serum taken prior to the infective challenge^37. […]
# [4] = tested on: A. caninum; assay: Canine vaccine trial with Ac-ASP-2, Ac-API, Ac-MEP-1, Ac-APR-1 in AS03, footpad challenge with 500 A. caninum L3; assay type: in vivo, dog
# Experimental: as §1, with “The ten purpose bred beagles were randomized into five arms: immunized with the adjuvant-formulated recombinant proteins or adjuvant only (control).” left out
# A. caninum larvae were cultured from eggs collected in the feces of infected dogs. All hookworms in the infective challenge were approximately equal age (17±7 days post hatching). The species identity of the infective larvae were validated using PCR. All dogs were infected by the footpad method with the same dose of 500 L3 of A. caninum (Zhan et al, 2001). Larval challenge occurred on one of three consecutive days (at age 120+/−9 days). Fourteen-sixteen days after the final immunization, dogs were anesthetized using a combination of ketamine and xylazine (20 mg.kg^−1 and 10 mg.kg^−1 respectively), and 500 A. caninum L3 in a final volume of […] were applied to the footpad.
molecule,measurement,setting,value
CC(C)C[C@H](NC(=O)[C@H]1O[C@@H]1C(=O)O)C(=O)NCCCCN=C(N)N [E64],% reduction in proteolytic activity,"[1]; 1.0 μg Ac-CP-2, Z-Phe-Arg-AMC, 50 ng pooled IgG or E64 5 μM, mean of triplicate",100 ± 0%
same,"cleavage of the peptide substrate, in words",[1]; final concentration of 5 μM,completely ablated
"Ac-ASP-2: A. caninum secreted protein 2, SEQ ID NO: 20; recombinant from Sf9 insect cells, given with AS03 (protein, listed as Ancylostoma caninum) MLVLVPLLALLAVSVHGNSMRCGNNGMTDEARQKFLDVHNSYRSMVAKGQAKDAISGNAPKAAKMKKMIYDCNVESTAMQNAKKCVFAHSHRKGVGENIWMSTARQMDKAQAAQQASDGWFSELAKYGVGQENKLTTQLWNRGVMIGHYTQMVWQESYKLGCYVEWCSSMTYGVCQYSPQGNNMNSLTYEKGNPCTKDSDCGSNASCSAGEALCVVRG","Pre-challenge antibody titer, IgE, GEOMEAN",[2]; geometric mean of group,100
same,"Pre-challenge antibody titer, IgG1, GEOMEAN",[2]; geometric mean of group,"10,837"
same,"Pre-challenge antibody titer, IgG2, GEOMEAN",[2]; geometric mean of group,"20,950"
same,"IgG1 and IgG2 antibody titers to recombinant Ac-ASP-2, in words",[2]; immunized canines,strong
same,"Pre-challenge antibody titer, IgE",[2]; individual dogs,100
same,"Pre-challenge antibody titer, IgG1",[2]; individual dogs,"13,500 (4×) and 4,500"
same,"Pre-challenge antibody titer, IgG2",[2]; individual dogs,"40,500 (2×) and 13,500 (3×)"
same,"IgE titers to Ac-ASP-2, in words",[2]; test canines,one log lower than the IgG1 and IgG2 titers
same,"IgG1 and IgG2 antibody titers to recombinant Ac-ASP-2, in words",[3]; immunized canines,strong
same,"IgE titers to Ac-ASP-2, in words",[3]; test canines,one log lower than the IgG1 and IgG2 titers
same,"worm burdens, Maximum",[4]; 5 dogs,226.00
same,"worm burdens, Minimum",[4]; 5 dogs,89.00
same,"worm burdens, Mean","[4]; 5 dogs, ASO3 control 203.8000",166.0000
same,"worm burdens, Median","[4]; 5 dogs, ASO3 control 215.0000",174.0000
same,"worm burden, Colon, Male, Average","[4]; group average, AS03 control 5",4
same,"worm burden, Colon, Female, Average","[4]; group average, AS03 control 9",5
same,"worm burden, Intestine, Female, Average","[4]; group average, AS03 control 95",81
same,"worm burden, Intestine, Male, Average","[4]; group average, AS03 control 96",76
same,"worm burden, Total, Average","[4]; group average, AS03 control 204",166
same,"worm burden, Colon, Female",[4]; individual dogs,5 and 4 and 3 and 8 and 6
same,"worm burden, Colon, Male",[4]; individual dogs,5 and 4 and 1 (2×) and 9
same,"worm burden, Intestine, Female",[4]; individual dogs,87 and 101 and 115 and 72 and 28
same,"worm burden, Intestine, Male",[4]; individual dogs,62 and 72 and 107 and 85 and 54
same,"worm burden, Total",[4]; individual dogs,160 and 181 and 226 and 174 and 89
